These results are taken from patent US20220251236A1 (Boehringer Ingelheim, published 2022).

In test [1] the target is T1, Cyno DLL3-His (cynomolgus monkey, UniProt Q9NYJ7 27-492 (human entry)).
T1 construct: also called cy DLL3; recombinant cyno DLL3-ECD
T1 chain: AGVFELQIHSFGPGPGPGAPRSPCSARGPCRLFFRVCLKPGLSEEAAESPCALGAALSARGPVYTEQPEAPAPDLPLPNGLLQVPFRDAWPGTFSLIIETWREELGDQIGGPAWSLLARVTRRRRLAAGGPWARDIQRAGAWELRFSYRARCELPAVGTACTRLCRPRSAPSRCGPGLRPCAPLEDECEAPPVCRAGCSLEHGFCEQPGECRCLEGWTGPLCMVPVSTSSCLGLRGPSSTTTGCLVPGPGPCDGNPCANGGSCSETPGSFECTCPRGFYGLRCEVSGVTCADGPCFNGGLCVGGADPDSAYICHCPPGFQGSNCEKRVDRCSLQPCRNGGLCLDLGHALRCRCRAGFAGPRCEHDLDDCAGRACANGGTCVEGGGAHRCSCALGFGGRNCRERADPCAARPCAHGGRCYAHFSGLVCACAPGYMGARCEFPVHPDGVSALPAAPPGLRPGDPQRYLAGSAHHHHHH
The test can be described thus: SPR; ratio of the KD values for human and cyno DLL3. The procedure: (§1) The binding affinity of purified DLL3/CD3 bispecific constructs for recombinant human and cyno DLL3-ECD and Fc-fusion proteins of human and cyno CD3 εγ subunits was determined by Surface Plasmon Resonance (SPR), using a ProteOn XPR36 instrument (Bio-Rad). The running buffer and all dilutions (except where stated) were done in PBS-T-EDTA. The GLM sensor chip (Bio-Rad) was normalized and pre-conditioned as per the manufacturer's recommendations. The sensor chip was activated with equal mixture of EDC/s-NHS in the horizontal direction for 300 sec at a flow rate of 30 ul/min and immobilized with protein A/G (20 ug/ml in 10 mM acetate pH 4.5) in the horizontal direction for 300 sec at a flowrate of 30 ul/min resulting in ˜5000 RU of protein A/G on the surface. The sensor chip was deactivated with 1M ethanolamine HCl in the horizontal direction for 300 sec at a flowrate of 30 μl/min.
(§2) For binding kinetic determination to DLL3, bispecific molecules were captured individually on the protein A/G surface vertically for 250 sec at a flowrate of 25 μl/min. The baseline was stabilized by injecting PBS-T-EDTA for 60 sec at a flowrate of 40 μl/min horizontally. The analyte (hu DLL3 or cy DLL3) was injected horizontally over the captured antibody for 600 sec at a flowrate of 40 μl/min and a dissociation for 2700 sec.
(§3) The inter spot (interactions with sensor surface) and blank (PBS-T-EDTA) were subtracted from the raw data.

For test [2], the target named is T1, Cyno DLL3-His. The test is described as follows: SPR (ProteOn XPR36), bispecific captured on protein A/G, DLL3 as analyte, Example 4A. The procedure:
as §1, §2, §3

The next test addresses T2, Human CD3 E+G HuFc-6xHis (human).
T2 construct: also called hu CD3εγ-Fc
The test can be described thus: SPR (ProteOn XPR36), CD3εγ-Fc amine-coupled, bispecific as analyte, equilibrium fit, Example 4A. The method, then:
as §1
For binding kinetic determination to CD3, hu CD3εγ-Fc and cy CD3εγ-Fc (dissolved in pH 4.5 acetate) was immobilized directly onto the sensor surface through amine coupling for 140 sec at a flowrate of 30 μl/min vertically. The baseline was stabilized by injecting PBS-T-EDTA for 60 sec at a flowrate of 40 μl/min horizontally. The analyte (the bispecific molecule) was injected horizontally over the captured CD3εγ-Fc construct for 600 sec at a flowrate of 40 μl/min and a dissociation for 600 sec.
as §3

Test [3] addresses T3, chicken egg white lysozyme (chicken, UniProt P00698 19-147).
T3 construct: also called Lysozyme (positive)
The test is described as follows: SPR (Biacore T200), lysozyme coupled to CM5 chip, non-specific binding assay. The procedure: The experiment was performed on a Biacore T200. The dilution, surface preparation, and binding experiments were performed at 25° C. in 1×HBS-EP buffer prepared from 10× HBS-EP. The flow rate for both the immobilization protocol and binding experiment was at 5 μL/min.
To prepare the surface for the non-specific binding experiment, chicken egg white lysozyme and trypsin inhibitor from glycine max soybean were coupled manually to a series S CM5 chip with the surface density of 3000-5000 RU using the amine coupling kit according to the manufacture instructions.
Samples were prepared at 1 μM in 1×HBS-EP buffer. The samples were injected over activated surfaces with a 10 min association and 10 min dissociation. The data was collected using Biacore T200 Control Software version 2.0.1 and analyzed using Biacore T200 Evaluation Software version 3.0.

A further test has as its target T4, Human DLL3-His (human, UniProt Q9NYJ7 27-492).
T4 construct: also called huDLL3-His; hu DLL3
T4 sequence: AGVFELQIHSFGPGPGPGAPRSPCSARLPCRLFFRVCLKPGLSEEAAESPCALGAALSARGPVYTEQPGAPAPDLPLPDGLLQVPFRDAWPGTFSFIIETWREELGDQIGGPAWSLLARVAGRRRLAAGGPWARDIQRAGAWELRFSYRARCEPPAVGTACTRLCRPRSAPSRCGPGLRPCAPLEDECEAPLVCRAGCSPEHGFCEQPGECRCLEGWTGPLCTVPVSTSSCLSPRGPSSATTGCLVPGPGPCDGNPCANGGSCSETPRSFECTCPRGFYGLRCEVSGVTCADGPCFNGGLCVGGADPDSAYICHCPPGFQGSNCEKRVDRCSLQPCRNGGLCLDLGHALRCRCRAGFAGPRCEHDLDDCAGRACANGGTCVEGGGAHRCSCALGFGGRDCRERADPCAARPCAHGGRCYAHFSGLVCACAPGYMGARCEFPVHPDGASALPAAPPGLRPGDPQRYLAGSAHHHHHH
The test is described as follows: SPR (ProteOn XPR36), bispecific captured on protein A/G, DLL3 as analyte, Example 4A. The procedure: as §1, §2, §3

T3 sequence (P00698 19-147): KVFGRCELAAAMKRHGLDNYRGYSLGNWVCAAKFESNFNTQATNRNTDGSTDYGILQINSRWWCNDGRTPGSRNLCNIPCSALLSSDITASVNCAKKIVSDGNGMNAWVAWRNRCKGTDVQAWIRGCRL
T2 sequence (chain, as listed by the source limits assumed): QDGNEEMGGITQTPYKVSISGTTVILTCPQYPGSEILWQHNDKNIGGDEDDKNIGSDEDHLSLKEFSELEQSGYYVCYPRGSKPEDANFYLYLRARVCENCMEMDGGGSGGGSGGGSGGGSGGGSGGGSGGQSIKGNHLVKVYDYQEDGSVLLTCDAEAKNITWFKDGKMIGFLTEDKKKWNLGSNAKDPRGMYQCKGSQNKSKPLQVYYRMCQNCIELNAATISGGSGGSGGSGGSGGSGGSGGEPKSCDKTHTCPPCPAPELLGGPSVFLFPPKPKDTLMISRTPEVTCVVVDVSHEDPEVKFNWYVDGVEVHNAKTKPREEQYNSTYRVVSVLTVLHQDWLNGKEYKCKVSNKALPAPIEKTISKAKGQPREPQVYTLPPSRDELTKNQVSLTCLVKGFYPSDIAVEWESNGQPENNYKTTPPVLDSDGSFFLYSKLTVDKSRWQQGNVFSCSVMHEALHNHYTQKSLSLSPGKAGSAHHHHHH

B1: DLL3#3/CD3#1 (bispecific antibody, human IgG1, kappa, lambda, L234A L235A)
chain 1: DIQMTQSPSAMSASVGDRVTITCRASQGISNYLVWFQQKPGKAPKRLIYAVSSLYSGVPSRFSGSGSGTEFTLTISSLQPEDFATYYCLQHDSYPYTFGQGTKLEIKRTVAAPSVFIFPPSDEQLKSGTASVVCLLNNFYPREAKVQWKVDNALQSGNSQESVTEQDSKDSTYSLSSTLTLSKADYEKHKVYACEVTHQGLSSPVTKSFNRGECGGGGSEGKSSGSGSESKSTEGKSSGSGSESKSTGGGGSQVQLVQSGAEVKKPGASVKVSCKASGYTFTSYYVHWVRQAPGQGLEWMVIINPGGGTTSYAQKFLGRVTMTRDTSTNTVYMELKSLRSEDTAVYYCARGEAVTGNYFYYGMDVWGQGTTVTVSSASTKGPSVFPLAPSSKSTSGGTAALGCLVKDYFPEPVTVSWNSGALTSGVHTFPAVLQSSGLYSLSSVVTVPSSSLGTQTYICNVNHKPSNTKVDKRVEPKSCDKTHTCPPCPAPEAAGGPSVFLFPPKPKDTLMISRTPEVTCVVVDVSHEDPEVKFNWYVDGVEVHNAKTKPREEQYNSTYRVVSVLTVLHQDWLNGKEYKCKVSNKALPAPIEKTISKAKGQPREPQVYTLPPSREEMTKNQVSLWCLVKGFYPSDIAVEWESNGQPENNYKTTPPVLDSDGSFFLYSKLTVDKSRWQQGNVFSCSVMHEALHNHYTQKSLSLSPG
chain 2: EAVVTQEPSLTVSPGGTVTLTCRSSTGAVTTSNYANWVQEKPGQLPRGLIGGTNKRAPWVPARFSGSLLGGKAALTLSGAQPEDEAEYFCALWYSNLWVFGGGTKLTVLGQPKAAPSVTLFPPSSEELQANKATLVCLISDFYPGAVKVAWKADGSPVNTGVETTTPSKQSNNKYAASSYLSLTPEQWKSHRSYSCQVTHEGSTVEKTVAPAECSGGGGSEGKSSGSGSESKSTEGKSSGSGSESKSTGGGGSEVQLVESGGGLVQPGGSLKLSCAASGFTFNTYAMNWVRQAPGKGLEWVARIRSKYNNYATYYADSVKDRFTISRDDSKNTAYLQMNNLKTEDTAVYYCVRHGNFGNSYVSWFAYWGQGTLVTVSAASTKGPSVFPLAPSSKSTSGGTAALGCLVKDYFPEPVTVSWNSGALTSGVHTFPAVLQSSGLYSLSSVVTVPSSSLGTQTYICNVNHKPSNTKVDKRVEPKSCDKTHTCPPCPAPEAAGGPSVFLFPPKPKDTLMISRTPEVTCVVVDVSHEDPEVKFNWYVDGVEVHNAKTKPREEQYNSTYRVVSVLTVLHQDWLNGKEYKCKVSNKALPAPIEKTISKAKGQPREPQVYTLPPSREEMTKNQVSLSCAVKGFYPSDIAVEWESNGQPENNYKTTPPVLDSDGSFFLVSKLTVDKSRWQQGNVFSCSVMHEALHNRFTQKSLSLSPG
notes: Heterodimer of one DLL3 chain and one CD3 chain (scFab-Fc, knob-in-hole)
Consider B1, for which the “Affinity gap KD hu/cyno DLL3” value with Cyno DLL3-His [1] worked out at 1. The Kd (commonly the concentration at which binding is half-saturated) with Cyno DLL3-His [2] was less than 0.01 nM; with Human CD3 E+G HuFc-6xHis, 7 nM. Moreover, the binding result in test [3] was “no binding (tested: 1 µM)”.

B2: DLL3#3/CD3#2 (bispecific antibody, human IgG1, kappa, lambda, L234A L235A)
chain 1: DIQMTQSPSAMSASVGDRVTITCRASQGISNYLVWFQQKPGKAPKRLIYAVSSLYSGVPSRFSGSGSGTEFTLTISSLQPEDFATYYCLQHDSYPYTFGQGTKLEIKRTVAAPSVFIFPPSDEQLKSGTASVVCLLNNFYPREAKVQWKVDNALQSGNSQESVTEQDSKDSTYSLSSTLTLSKADYEKHKVYACEVTHQGLSSPVTKSFNRGECGGGGSEGKSSGSGSESKSTEGKSSGSGSESKSTGGGGSQVQLVQSGAEVKKPGASVKVSCKASGYTFTSYYVHWVRQAPGQGLEWMVIINPGGGTTSYAQKFLGRVTMTRDTSTNTVYMELKSLRSEDTAVYYCARGEAVTGNYFYYGMDVWGQGTTVTVSSASTKGPSVFPLAPSSKSTSGGTAALGCLVKDYFPEPVTVSWNSGALTSGVHTFPAVLQSSGLYSLSSVVTVPSSSLGTQTYICNVNHKPSNTKVDKRVEPKSCDKTHTCPPCPAPEAAGGPSVFLFPPKPKDTLMISRTPEVTCVVVDVSHEDPEVKFNWYVDGVEVHNAKTKPREEQYNSTYRVVSVLTVLHQDWLNGKEYKCKVSNKALPAPIEKTISKAKGQPREPQVYTLPPSREEMTKNQVSLWCLVKGFYPSDIAVEWESNGQPENNYKTTPPVLDSDGSFFLYSKLTVDKSRWQQGNVFSCSVMHEALHNHYTQKSLSLSPG
chain 2: EAVVTQEPSLTVSPGGTVTLTCRSSTGAVTTSNYANWVQEKPGQLPRGLIGGTNKRAPWVPARFSGSLLGGKAALTLSGAQPEDEAEYFCALWYSNLWVFGGGTKLTVLGQPKAAPSVTLFPPSSEELQANKATLVCLISDFYPGAVKVAWKADGSPVNTGVETTTPSKQSNNKYAASSYLSLTPEQWKSHRSYSCQVTHEGSTVEKTVAPAECSGGGGSEGKSSGSGSESKSTEGKSSGSGSESKSTGGGGSEVQLVESGGGLVQPGGSLKLSCAASGFTFNTYAMNWVRQAPGKGLEWVARIRSKYINYATYYADSVKDRFTISRDDSKNTAYLQMNNLKTEDTAVYYCVRHGNFGNSYVSWFAYWGQGTLVTVSAASTKGPSVFPLAPSSKSTSGGTAALGCLVKDYFPEPVTVSWNSGALTSGVHTFPAVLQSSGLYSLSSVVTVPSSSLGTQTYICNVNHKPSNTKVDKRVEPKSCDKTHTCPPCPAPEAAGGPSVFLFPPKPKDTLMISRTPEVTCVVVDVSHEDPEVKFNWYVDGVEVHNAKTKPREEQYNSTYRVVSVLTVLHQDWLNGKEYKCKVSNKALPAPIEKTISKAKGQPREPQVYTLPPSREEMTKNQVSLSCAVKGFYPSDIAVEWESNGQPENNYKTTPPVLDSDGSFFLVSKLTVDKSRWQQGNVFSCSVMHEALHNRFTQKSLSLSPG
notes: as for B1
Consider B2, for which, in the test with Cyno DLL3-His [1], the “Affinity gap KD hu/cyno DLL3” value turned out to be 1. For the same molecule, the figures for the dissociation constant Kd in the test with Human DLL3-His, with Cyno DLL3-His [2] and with Human CD3 E+G HuFc-6xHis were less than 0.01 nM, less than 0.01 nM and 90 nM, respectively. Besides, in test [3], the binding result was “no binding (tested: 1 µM)”.
